Entries after “also recorded” stand apart in the source; their conditions may differ. Where two headings read alike, the source gives them in different places.
Legend:
[1] = system: HUVEC, HMVEC or peripheral blood B cells; assay: ADCC of normal ICAM-1 expressing cells; assay type: cell-based
Text: Buffy coats from human donors (ordered through Blodcentralen, Lund) were used to isolate peripheral blood mononuclear cells (PBMCs), and subsequently NK cells. Briefly, peripheral blood components were separated using Ficoll Paque PLUS (Amersham Biosciences, Sweden) in LeucoSep tubes (Greiner Bio-One). The PBMC fraction was removed and thoroughly washed in ice-cold DPBS (Invitrogen), before magnetic labeling and separation of the NK cell population using positive or negative NK cell isolation kits and MACS LS columns (Miltenyi Biotec). The purity of the obtained NK cell fractions was analyzed using flow cytometry, after staining with α-CD56 antibodies (BD Biosciences). Target cells were harvested, and incubated in medium with or without the respective antibodies (2 μg/mL) for 60 min on ice. Cells were thereafter washed and resuspended in cold medium before dispension into FACS tubes. Subsequently, isolated NK cells were diluted in ADCC medium and dispensed together with the respective antibody-coated target cells at varying effector/target cell ratios (40:1, 20:1, 5:1 and 1:1). All experiments were performed in triplicates. After completed incubation ToPo-Pro-3 dye and counting beads (Invitrogen) were added and cells were analyzed for membrane permeabilization using flow cytometry.

[2] = system: ARH-77 tumors; assay: Advanced (established, palpable tumors) scid/ARH-77 xenograft model; settings: IgG B11 effective even at 100-fold lower dose (0.2 mg/kg) than rituximab
Method: Mice were anaesthetized with a mixture of sevofluran and oxygen prior to myeloma cell inoculation and 1-5×10^6 myeloma cells were then subcutaneously injected in a volume of 100 μl into the left flank. Treatment with antibodies by intraperitonial (i.p.) injections was started either the day after cell inoculation (prophylactic model) or when tumors reached a size of approximately 100 mm^3 (established model). Antibodies were administrated in PBS in a total volume of 200 μL. Treatment with PBS or isotype control was used as control. Tumors were measured with a digital calliper and the tumor volumes were calculated according to formula: width^2×length×0.52. Animals were sacrificed when the tumor sizes reached the ethical limit of 1.5 cm. Surviving mice were sacrificed after a maximum of 5 months. Blood samples collected from the vena cava were centrifuged at 2500 g for 15 min to obtain serum and the samples were stored at −20° C. Tumors were removed for immunohistochemistry, snap frozen and were kept at −85° C.

[3] = system: ARH-77 cells; assay: Disseminated scid/ARH-77 model of multiple myeloma; assay type: in vivo, scid mice; settings: i.v. on Days 7, 10, 13, 16; antibody 2 mg/kg, bortezomib 0.5 mg/kg; vs control treatment
Method: ARH-77 cells or RPMI-8226 were injected intravenously into the SCID mice. (A) ARH-77 model. Animals received intravenous injections with antibody at 2 mg/kg or bortezomib (Velcade) at 0.5 mg/kg on Days 7, 10, 13, and 16 (as indicated by arrows in the graph). (B) RPMI-8226-model. B11 or control mAb was administered i.v at 2 mg/kg, twice weekly for 8 weeks, bortezomid, at 1 mg/kg, once weekly for 8 weeks, lenalidomide p.o with 2 mg/kg for 2 cycles consisting of 5 days of treatment and 2 days of wash out, melphalan i.v at 3 mg/kg, once weekly for 8 weeks, and dexamethasone (DXH) at 6 mg/kg/inj 3 times/week for 2 consecutive weeks. There were 6-10 mice per treatment group. Statistical significance was calculated using Log-rank Graphpad Prism software and determined at ***p<0.001. (C) To study the ICAM-1 level on human cells, the cells from different organs were stained and gated for CD38+/mCD45−/B11+. Left panel indicates the percentage of B11 positive cells in CD38+/mCD45 population and right panel the mean fluorescent intensity of the positive cells.
The anti-myeloma effect of B11 was examined in a disseminated model of multiple myeloma. The early and advanced disseminated model of multiple myeloma was performed at Oncodesign, Dijon, France. Briefly: 1×10^6 (early) or 5×10^6 (advanced) ARH-77 tumor cells in 200 μL of RPMI 1640 were injected intravenously (i.v) into the caudal vein of female scid mice (D0). Tumor cell injections were performed twenty four to forty eight hours after a whole body irradiation of mice (1.8 Gy, ^60Co, INRA, BRETENNIERES). The treatment was started at D5 RPMI-8226 model or D7 (ARH-77 model) […]. B11 or control mAb was administered i.v. at 2 mg/kg, twice weekly for 8 weeks, bortezomib, at 1 mg/kg, once weekly for 8 weeks, lenalidomide p.o with 2 mg/kg for 2 cycles consisting of 5 days of treatment and 2 days of wash out, melphalan i.v. at 3 mg/kg, once weekly for 8 weeks, and dexamethasone at 6 mg/kg 1 injected 3 times a week for 2 consecutive weeks.
The disseminated model of scid/ARH-77 is a well-established experimental model that resembles human multiple myeloma disease progression and disease manifestation in many respects (33). We utilized this model to further characterize IgG B11 anti-myeloma activity (FIG. 6A). Intravenous injection of irradiated scid mice with 1×10^6 ARH-77 cells was previously shown to result in their dissemination and establishment in mouse bone-marrow, and resulting osteolytic bone-lesions and hypercalcemia, and ultimately, in animal paralysis or difficulty of breathing at which time animals were immediately sacrificed. […]

[4] = system: OPM-2 myeloma cells; assay: Subcutaneous scid myeloma xenograft, OPM-2 (ICAM-1 negative); assay type: in vivo, scid mice; settings: 2 mg/kg twice weekly
Method: (§1) Antibody treatment with 2 mg/kg B11 or control IgG1 was started at Day 1 and was continued on a twice-weekly intraperitoneal dosing regimen. Mice were sacrificed when tumor sizes reached the ethical limit.

[5] = system: NCI-H929 myeloma cells; assay: Subcutaneous scid myeloma xenograft, NCI-H929; assay type: in vivo, scid mice; settings: 2 mg/kg twice weekly
Method: as §1

[6] = system: EJM myeloma cells; assay: Subcutaneous scid myeloma xenograft, EJM; assay type: in vivo, scid mice; settings: 2 mg/kg twice weekly
Method: as §1

[7] = system: peripheral blood B cells; assay: PCD in normal peripheral blood B cells; assay type: cell-based; settings: resting or activated peripheral blood B cells
Method: (§2) Target cells were seeded in 96-well culture plates at a density of 2×10^6 cells/mL culture medium. Titrated concentrations of IgG1 B11 or different negative and positive control antibodies were added to the cells, in the absence or presence of anti-human Fab fragment (Jackson ImmunoResearch) for cross-linking. The cells were then incubated for 16 hours at 37° C. in a humidified atmosphere of 5% CO2. The cells were harvested and stained for Annexin V-488/Propidium Iodide (Invitrogen, Sweden) and analysed using flow cytometer (FACS Calibur, BD Bioscience).

[8] = target: T1, human FcγRIIIa (Homo sapiens, UniProt P08637); assay: B11 isotype variant binding to FcγR (Biacore), human FcγRIIIa
T1 construct: made in house; host or cells: HEK293E (transient, adherent)
Method: His-tagged human FcγRIIIa or mouse FcγRIV were expressed transient in adherent HEK293E cells, purified using Ni-NTA chromatography and characterized using SDS-PAGE and/or Biacore. Surface plasmon resonance (SPR) measurements were performed using a Biacore 3000 instrument. Goat α-human-F(ab)′2 F(ab)′2 fragment (Jackson laboratories) was immobilised with a CM-5 chip using a standard amine coupling protocol. IgG1 B11, IgG4 B11, or 297Q B11 were diluted to 15 and 60 μg/mL respectively and added to the surface at […] for 3 min. His tagged human FcγRIIIa or mouse FcγRIV were pre-incubated with an α-HIS antibody (R&D Systems) at a 2:1 molar ratio before addition to the chip surface, 30 μL/min, 1 min. After each cycle the surface was regenerated twice with glycine buffer pH 1.7.

[9] = system: RPMI-8226 myeloma cells; assay: Subcutaneous scid myeloma xenograft, RPMI-8226; assay type: in vivo, scid mice; settings: 2 mg/kg twice weekly
Method: as §1

[10] = system: HUVEC and HMVEC endothelial cells; assay: PCD in normal ICAM-1 expressing endothelial cells; assay type: cell-based; settings: resting or activated HUVEC/HMVEC
Method: as §2

T1 sequence (P08637 17-254): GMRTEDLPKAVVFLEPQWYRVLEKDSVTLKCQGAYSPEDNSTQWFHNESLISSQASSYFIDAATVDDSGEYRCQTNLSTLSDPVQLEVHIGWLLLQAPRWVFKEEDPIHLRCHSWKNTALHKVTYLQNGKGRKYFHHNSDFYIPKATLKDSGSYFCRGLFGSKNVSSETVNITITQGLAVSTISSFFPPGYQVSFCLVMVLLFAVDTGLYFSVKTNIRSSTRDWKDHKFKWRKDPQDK

B1: IgG B11: novel human ICAM-1 antibody targeting the B11 epitope, isolated from the naïve antibody library n-CoDeR (antibody, V domains shown)
VH: EVQLLESGGGLVQPGGSLRLSCAASGFTFSNAWMSWVRQAPGKGLEWVAFIWYDGSNKYYADSVKGRFTISRDNSKNTLYLQMNSLRAEDTAVYYCARYSGWYFDYWGQGTLVTVSS
VL: QSVLTQPPSASGTPGQRVTISCTGSSSNIGAGYDVHWYQQLPGTAPKLLIYDNNNRPSGVPDRFSGSKSGTSASLAISGLRSEDEADYYCQSYDSSLSAWLFGGGTKLTVLG
modifications: B11 antibody variable H region; B11 antibody variable L region
In the case of B1, the “ADCC of normal cells” value [1] is reported as “did not confer ADCC or CDC”, the “ADCC of normal cells” value ([1]; listed as B11) is reported as “not significantly affected” and the animal survival [2] is reported as “prolonged animal survival”. The tumor growth [2] was “significantly prevented tumor growth”, the animal survival [3] was “increased mean survival time” and the “time to symptomatic disease onset” value [3] was “doubled the time to symptomatic disease onset”. The “effect on tumor growth” value [4] was “no effect on tumor growth; also recorded: did not affect tumor growth”, the “reduction of myeloma tumor growth” value [5] was 99% and the “reduction of myeloma tumor growth” value [6] was 98%. The “programmed cell death of normal B cells” value [7] was “did not, however, induce PCD”, the “programmed cell death of normal B cells” value ([7]; listed as B11) was “not significantly affected” and the “binding to human FcγRIIIa” value [8] was “bound to human FcγRIIIa”. The “reduction of myeloma tumor growth” value [9] was 96% and the “programmed cell death of normal endothelial cells” value [10] was “did not, however, induce PCD”.

— patent publication US20150352207A1, “USE OF ANTIBODIES AGAINST ICAM-1 IN COMBINATION WITH AN ANTI CANCER DRUG IN THE TREATMENT OF PATIENTS” (BIOINVENT INTERNATIONAL AB, priority 2013, published 2015)
